From patent US20160257942, “MODIFIED HELICASES” (Oxford Nanopore Technologies Ltd., published 2016)

Target: T1, T4 Dda E94C/A360C (Enterobacteria phage T4, UniProt P32270 SEQ:1-439, E94C/A360C/(ΔM1)G1G2)
T1 sequence: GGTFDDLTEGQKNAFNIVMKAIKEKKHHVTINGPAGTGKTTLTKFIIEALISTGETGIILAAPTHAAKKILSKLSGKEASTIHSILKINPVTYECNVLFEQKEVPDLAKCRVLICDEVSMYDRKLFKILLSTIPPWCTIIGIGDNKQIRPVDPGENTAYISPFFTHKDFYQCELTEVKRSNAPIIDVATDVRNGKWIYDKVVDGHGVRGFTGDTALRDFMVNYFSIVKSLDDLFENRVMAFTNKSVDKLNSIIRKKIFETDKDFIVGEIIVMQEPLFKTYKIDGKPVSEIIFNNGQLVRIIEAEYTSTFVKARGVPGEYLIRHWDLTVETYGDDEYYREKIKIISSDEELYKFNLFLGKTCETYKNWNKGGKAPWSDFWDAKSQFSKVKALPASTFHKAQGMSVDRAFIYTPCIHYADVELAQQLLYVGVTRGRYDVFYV
Test: FP; 25 mM potassium phosphate, 151.5 mM KCl, pH 8.0, 10 mM MgCl2, 25 C, 60 min; exact value only in figure
Conditions: label: FAM on thymine 37
Description: Two custom fluorescent substrates were used to assess the ability of T4 Dda—E94C/A360C helicase to bind to linear (SEQ ID NO: 64) and circular (SEQ ID NO: 65) single-stranded DNA. […] As the helicase bound to either fluorescent substrate in a buffered solution (25 mM potassium phosphate, 151.5 mM KCl, pH8.0, 10 mM MgCl₂), the fluorescence anisotropy (a property relating to the speed of tumbling of the DNA substrate in solution) increased. The lower the amount of helicase needed to effect an increase in anisotropy, the tighter the binding affinity between the DNA and helicase (FIG. 3).
T4 Dda—E94C/A360C was buffer exchanged into the binding buffer (25 mM potassium phosphate, 151.5 mM KCl, pH8.0, 10 mM MgCl₂) and then serially diluted over a concentration range of 0.02 nM to 750 nM. Each sample concentration was then mixed with linear or circular single-stranded DNA (1 nM of SEQ ID NO: 64 or 65) giving a final concentration range of T4 Dda—E94C/A360C of 0.01 nM to 375 nM and the fluorescence anisotropy assessed over the course of 60 min at 25° C.

Which Kd does the source give for TTTTTTTTTTTTTTTTTTTTTTTTTTTTTTTTTTTTTTTTTTTT (ssDNA) [44 nt linear ssDNA] here?
Its Kd is < 15 nM.
